The target of data set [1] is condensin I holocomplex (CI) (Homo sapiens, UniProt O95347;Q9NTJ3;Q15021;Q9BPX3;Q15003 1-1197;1-1288;1-1401;1-1015;1-741). Kind of data set: fluorescence polarization; no ATP; 75 mM NaCl; FP: 20 mM Tris pH 7.5, 75 mM NaCl, 2.5% glycerol, 1 mM DTT, room temp, 50 nM DNA; EMSA: 20 mM HEPES pH 8, 300 mM KCl, 5 mM MgCl2, 1 mM DTT, 10% glycerol, on ice; curtains: 40 mM Tris-HCl pH 7.5, 125 mM NaCl, 5 mM MgCl2, 1 mM DTT, 0.5 mg/mL BSA, 37 C. To be noted: protein: recombinant; tags: 6xHis-SMC4; CAP-H 2xStrep; copies: 1;1;1;1;1; label: 6-FAM on reverse strand; blunt.

In data set [2] the target is condensin II holocomplex (CII) (Homo sapiens, UniProt O95347;Q9NTJ3;P42695;Q86XI2;Q6IBW4 1-1197;1-1288;1-1498;1-1143;1-605). The data set is described as above. To be noted: protein: recombinant; tags: 6xHis-SMC4; CAP-H2 2xStrep; copies: 1;1;1;1;1; label: 6-FAM on reverse strand; blunt.

Drawing on paper PMC7335352, this text covers Kd for one molecule.

B1: 30-bp dsDNA, 6-FAM (dsDNA)
DNA 1: CTGTCACACCCTGTCACACCTGTCACAC
DNA 2: GTGTGACAGGTGTGACAGGGTGTGACAG
Turning to B1, the Kd turned out to be 3000 ± 300 nM in data set [1] and 1200 ± 100 nM in data set [2].

A word on the Kd: it is the equilibrium constant for the complex coming apart.
